# Changes are numbered by the printed parent chain.
# B1: ATP synthase subunit a (Tachyglossus aculeatus aculeatus) (other)
# chain: MNENLFASFITPTILGISILPLIMIFPCLLFSAPNRWMPNRLVALQLWLVRMVTKQMMSMHNKQGRMWTLMLITLIMFIASTNLLGLLPYTFTPTTQLSMNMGMAVPLWLGTVLMGFRNKPKSSLAHFLPQGTPTPLIPMLIIIETISLFIQPVALAVRLTANITAGHLLIHLIGSATLALSSISLTVSTITFTILFLLTILEIAVALIQAYVFTLLVSLYLHDNT
# B2: Protein YIPF6 (other)
# chain: MAEAEESPGDPGTASPRPLFAGLSDISISQDIPVEGEITIPMRSRIREFDSSTLNESVRNTIMRDLKAVGKKFMHVLYPRKSNTLLRDWDLWGPLILCVTLALMLQRDSADSEKDGGPQFAEVFVIVWFGAVTITLNSKLLGGNISFFQSLCVLGYCILPLTVAMLICRLVLLADPGPVNFMVRLFVVIVMFAWSIVASTAFLADSQPPNRRALAVYPVFLFYFVISWMILTFTPQ
# B3: Immediate early response 3-interacting protein 1 (other)
# chain: MAFTLYSLLQAALLCVNAIAVLHEERFLKNIGWGTDQGIGGFGEEPGIKSQLMNLIRSVRTVMRVPLIIVNSIAIVLLLLFG
# B4: Kunitz-type protease inhibitor 2 (other)
# chain: ADRERSIHDFCLVSKVVGRCRASMPRWWYNVTDGSCQLFVYGGCDGNSNNYLTKEECLKKCATVTENATGDLATSRNAADSSVPSAPRRQDSEDHSSDMFNYEEYCTANAVTGPCRASFPRWYFDVERNSCNNFIYGGCRGNKNSYRSEEACMLRCFRQQENPPLPLGSKVVVLAGLFVMVLILFLGASMVYLIRVARRNQERALRTVWSSGDDKEQLVKNTYVL
# B5: Transmembrane protein 147 (other)
# chain: MTLFHFGNCFALAYFPYFITYKCSGLSEYNAFWKCVQAGVTYLFVQLCKMLFLATFFPTWEGGIYDFIGEFMKASVDVADLIGLNLVMSRNAGKGEYKIMVAALGWATAELIMSRCIPLWVGARGIEFDWKYIQMSIDSNISLVHYIVASAQVWMITRYDLYHTFRPAVLLLMFLSVYKAFVMETFVHLCSLGSWAALLARAVVTGLLALSTLALYVAVVNVHS
# B6: ATP synthase subunit a (Homo sapiens) (other)
# chain: MNENLFASFIAPTILGLPAAVLIILFPPLLIPTSKYLINNRLITTQQWLIKLTSKQMMTMHNTKGRTWSLMLVSLIIFIATTNLLGLLPHSFTPTTQLSMNLAMAIPLWAGTVIMGFRSKIKNALAHFLPQGTPTPLIPMLVIIETISLLIQPMALAVRLTANITAGHLLMHLIGSATLAMSTINLPSTLIIFTILILLTILEIAVALIQAYVFTLLVSLYLHDNT
# B7: UPF0414 transmembrane protein C20orf30 (other)
# chain: MMPSRTNLATGIPSSKVKYSRLSSTDDGYIDLQFKKTPPKIPYKAIALATVLFLIGAFLIIIGSLLLSGYISKGGADRAVPVLIIGILVFLPGFYHLRIAYYASKGYRGYSYDDIPDFDD
# B8: ATP synthase subunit a (Cricetulus griseus) (other)
# chain: MNENLFSSFITPTLMGLPIIILIIMFPPVIMTSSKRLVNNRFHTFQQWLIKLITKQMMAIHSPKGRTWSLMLASLIIFIGSTNLLGLLPHTFTPTTQLSMNLGMAIPPWAGAVILGFRHKMKDSLAHFLPQGTPIPLIPMLVIIETISLFIQPMALAVRLTANITAGHLLMHLIGGATLVLTSISLPTAMITFIILIMLTILEFAVALIQAYVFTLLVSLYLHDNT
# B9: ATP synthase subunit a (Pan troglodytes) (other)
# chain: MNENLFASFAAPTILGLPAAVLIILFPPLLVPTSKHLINNRLITTQQWLIQLTSKQMMTMHSTKGRTWSLMLVSLIIFITTTNLLGLLPHSFTPTTQLSMNLAMAIPLWAGAVVMGFRFKTKNALAHFLPQGTPTPLIPMLVIIETISLLIQPMALAVRLTANITAGHLLMHLIGSATLALSTINLPYALIIFTILILLTILEIAVALIQAYVFTLLVSLYLHDNT
# B10: B-cell receptor-associated protein 31 (other)
# chain: MSLQWTAVATFLYAEVFVVLLLCIPFISPKRWQKIFKSRLVELLVSYGNTFFVVLIVILVLLVIDAVREIRKYDDVTEKVNLQNNPGAMEHFHMKLFRAQRNLYIAGFSLLLSFLLRRLVTLISQQATLLASNEAFKKQAESASEAAKKYMEENDQLKKGAAVDGGKLDVGNAEVKLEEENRSLKADLQKLKDELASTKQKLEKAENQVLAMRKQSEGLTKEYDRLLEEHAKLQAAVDGPMDKKEE
# B11: Uncharacterized protein C10orf35 (other)
# chain: MVRILANGEIVQDDDPRVRTTTQPPRGSIPRQSFFNRGHGAPPGGPGPRQQQAGARLGAAQSPFNDLNRQLVNMGFPQWHLGNHAVEPVTSILLLFLLMMLGVRGLLLVGLVYLVSHLSQR
# B12: Protein disulfide-isomerase A6 (enzyme)
# chain: LYSSSDDVIELTPSNFNREVIQSDSLWLVEFYAPWCGHCQRLTPEWKKAATALKDVVKVGAVDADKHHSLGGQYGVQGFPTIKIFGSNKNRPEDYQGGRTGEAIVDAALSALRQLVKDRLGGRSGGYSSGKQGRSDSSSKKDVIELTDDSFDKNVLDSEDVWMVEFYAPWCGHCKNLEPEWAAAASEVKEQTKGKVKLAAVDATVNQVLASRYGIRGFPTIKIFQKGESPVDYDGGRTRSDIVSRALDLFSDNAPPPELLEIINEDIAKRTCEEHQLCVVAVLPHILDTGAAGRNSYLEVLLKLADKYKKKMWGWLWTEAGAQSELETALGIGGFGYPAMAAINARKMKFALLKGSFSEQGINEFLRELSFGRGSTAPVGGGAFPTIVEREPWDGRDGELPVEDDIDLSDVELDDLGKDEL
# B13: Signal peptidase complex subunit 1 (other)
# chain: MARGGDTGCTGPSETSASGAVAIAFPGLEGPPADAQYQTLALTVPKSWSPSPRSLPPALSCPPPQPAMLEHLSSLPTQMDYKGQKLAEQMFQGIILFSAIVGFIYGYVAEQFGWTVYIVMAGFAFSCLLTLPPWPIYRRHPLKWLPVQESSTDDKKPGERKIKRHAKNN
# B14: Transmembrane protein 14A (other)
# chain: MDLIGFGYAALVTFGSIFGYKRRGGVPSLIAGLFVGCLAGYGAYRVSNDKRDVKVSLFTAFFLATIMGVRFKRSKKIMPAGLVAGLSLMMILRLVLLLL
# B15: Uncharacterized protein C4orf3 (other)
# chain: MEVDAPGVDGRDGLRERRGFSEGGRQNFDVRPQSGANGLPKHSYWLDLWLFILFDVVVFLFVYFLP
# B16: 3-beta-hydroxysteroid-Delta(8), Delta(7)-isomerase (Rattus norvegicus) (enzyme)
# chain: MTTNMLPLHPYWPRHLRLDNFVPNDLPTWHILVGLFSFSGVLIVITWLLSSRVSVVPLGTGRRLALCWFAVCTFIHLVIEGWFSFYHEILLEDQAFLSQLWKEYSKGDSRYILSDGFIVCMESVTACLWGPLSLWVVIAFLRHQPFRFVLQLVVSVGQIYGDVLYFLTELRDGFQHGELGHPLYFWFYFVIMNAIWLVIPGILVFDAIKHLTNAQSMLDNKVMKIKSKHN
# B17: UPF0480 protein C15orf24 homolog (other)
# chain: SEVPGAAAEGSGGSGVGIGDRFKIEGRAVVPGVKPQDWISAARVLVDGEEHVGFLKTDGSFVVHDIPSGSYVVEVVSPAYRFDPVRVDITSKGKMRARYVNHIKTSEVVRLPYPLQMKSSGPPSYFIKRESWGWTDFLMNPMVMMMVLPLLIFVLLPKVVNTSDPDMRREMEQSMNMLNSNHELPDVSEFMTRLFSSKSSGKSSSGSSKTGKSGAGKRR
# B18: UPF0480 protein C15orf24 (other)
# chain: B17 chain with H102Y
# B19: Translocon-associated protein subunit gamma (other)
# chain: MAPKGSSKQQSEEDLLLQDFSRNLSAKSSALFFGNAFIVSAIPIWLYWRIWHMDLIQSAVLYSVMTLVSTYLVAFAYKNVKFVLKHKVAQKREDAVSKEVTRKLSEADNRKMSRKEKDERILWKKNEVADYEATTFSIFYNNTLFLVVVIVASFFILKNFNPTVNYILSISASSGLIALLSTGSK
# B20: Probable ergosterol biosynthetic protein 28 (other)
# chain: MSRFLNVLRSWLVMVSIIAMGNTLQSFRDHTFLYEKLYTGKPNLVNGLQARTFGIWTLLSSVIRCLCAIDIHNKTLYHITLWTFLLALGHFLSELFVYGTAAPTIGVLAPLMVASFSILGMLVGLRYLEVEPVSRQKKRN
# B21: Peptidyl-prolyl cis-trans isomerase B (enzyme)
# chain: not shown
# Biological target: SLC41A1 (human)
# Sequence (chain, as listed by the source limits assumed): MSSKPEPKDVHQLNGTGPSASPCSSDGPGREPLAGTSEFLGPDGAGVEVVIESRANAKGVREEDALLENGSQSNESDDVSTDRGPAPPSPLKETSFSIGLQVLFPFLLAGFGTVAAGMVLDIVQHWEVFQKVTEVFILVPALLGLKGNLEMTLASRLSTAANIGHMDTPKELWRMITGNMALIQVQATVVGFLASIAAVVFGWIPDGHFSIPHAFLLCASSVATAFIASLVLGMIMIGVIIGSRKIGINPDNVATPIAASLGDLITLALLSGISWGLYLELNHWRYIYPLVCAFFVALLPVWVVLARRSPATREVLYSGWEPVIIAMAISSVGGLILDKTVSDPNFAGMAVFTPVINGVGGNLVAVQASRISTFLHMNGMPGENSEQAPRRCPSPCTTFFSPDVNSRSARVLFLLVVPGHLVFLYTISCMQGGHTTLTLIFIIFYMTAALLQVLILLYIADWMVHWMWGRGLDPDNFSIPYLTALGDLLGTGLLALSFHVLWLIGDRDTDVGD
# Test: split-ubiquitin method screen (DUALmembrane SU-YTH) for SLC41A1 complex-forming partners
row,Binder,occurrence [clones]
1,B1,1
2,B2,2
3,B3,3
4,B4,2
5,B5,2
6,B6,1
7,B7,3
8,B8,1
9,B9,1
10,B10,10
11,B11,2
12,B12,11
13,B13,2
14,B14,2
15,B15,2
16,B16,1
17,B17,1
18,B18,4
19,B19,4
20,B20,2
21,B21,5

# From patent US20130174289A1, “Na+/Mg2+ Exchanger” (FBN - Leibnitz-Institut fur Nutztierbiologie, published 2013)
